Target: SHP2 N-terminal SH2 domain, T42A (human)
Assay: fluorescence polarisation

## fluorescent phosphopeptide derived from pTyr1179 of insulin receptor substrate 1 (IRS-1)
  fold tighter binding against N-SH2 WT: 5 fold
